From PMC13174313 (bioRxiv, 2026) come the findings set out here.

Common to all, as to test: ITC
For assay [1], the target named is TII: Tctex1 homodimer with two IC chains bound (D. melanogaster) (UniProt Q94524).
Assay [2] deals with D. melanogaster dynein light chain LC8 (D. melanogaster, UniProt Q24117 1-89).
The target in assay [3] is T1, D. melanogaster dynein light chain Tctex1 (D. melanogaster, UniProt Q94524 1-111).
T1 sequence: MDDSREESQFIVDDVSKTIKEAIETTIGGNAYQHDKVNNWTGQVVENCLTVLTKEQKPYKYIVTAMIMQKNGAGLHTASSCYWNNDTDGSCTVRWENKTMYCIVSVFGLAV

Chain of D. melanogaster dynein light chain LC8 (D. melanogaster, UniProt Q24117 1-89) (Q24117 whole entry): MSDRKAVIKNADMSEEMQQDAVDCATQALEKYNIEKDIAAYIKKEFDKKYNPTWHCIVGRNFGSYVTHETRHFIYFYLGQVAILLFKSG

Take “D. melanogaster dynein light chain LC8 (from UniProt Q24117 1-89) (natural protein)”: the dH (TII -> TIILII) in assay [1] was -25.8 kcal/mol.

B1: D. melanogaster dynein intermediate chain ICTL (domain or fragment, UniProt Q24246 84-143, looked up)
chain: SNTQTPDASLQATVNGQSGGKKQPLNLSVYNVQATNIPPKETLVYTKQTQTTSTGGGNGD
In the case of B1, in assay [2], the “dH, first IC on the LC8 dimer (LI)” value is -14.8 kcal/mol and the “dH, second IC on the LC8 dimer (LI to LII)” value is -15.1 kcal/mol. Moreover, in assay [3], the “dH, first IC on the Tctex1 dimer (TI)” value is -6.76 kcal/mol and the “dH, second IC on the Tctex1 dimer (TI to TII)” value was -4.97 kcal/mol.
